For 17 molecules, OD450 results are on record in patent US20240084003A1 (SIMCERE ZAIMING PHARMACEUTICAL, published 2024).

Numbering of substitutions follows the chain as printed.

B1: F2.70.2 (antibody, human IgG1, lambda, V domains shown)
VH: EVQLVESGGGLVKPGGSLKLSCAASGFTFSDYGMNWFRQAPEKGLEWVAYISRGSHTIYYADTVKGRFTISRDNAKNTLFLQMTSLRSNDTAMYYCVRMAGYYAMDYWGQGTSVTVSS
VL: QLVLTQSSSASFSLGASAKLTCTLSSQHSSYIIEWYQQQPLKPPKYVMELKKDGSHSTGDGIPDRFSGSSSGADRYLSISNIQPEDEAIYICGVGDTIKEQFVYVFGGGTKVTVLG
notes: Human-murine chimeric IgG1, lambda
B2: F2.180.16 (antibody, human IgG1, lambda, V domains shown)
VH: EVKLVESGGGLVLPGGSLKISCAASGFTFSDYYMYWIRQTPDKRLEWVAYISNTGYSTFYPDSVKGRFTVSRDNAKNTLYLQMSRLQSEDTAMYYCARHGILYAMDYWGQGTSVTVSS
VL: B1 VL with L2P, H28Y, S30T, I32T, E34G, K52H, H56R, S57H, I89T, V103M
notes: as for B1
B3: F2.104.10 (antibody, human IgG1, lambda, V domains shown)
VH: B1 VH with L11F, K76E, V114L
VL: B1 VL with L50V, P84S
notes: as for B1
B4: F2.55.1 (antibody, human IgG1, lambda, V domains shown)
VH: QVTLKESGPGILQPSQTLSLTCSFSGFSLSTFPLGVGWIRQPSGKGLEWLAHVWWNDDDYYNPALKSRLTISKDTSNTRVFLSVASVDTAETATYYCARLNWDRWYFDVWGTGTTVTVSS
VL: QLVLTQSSSASFSLGASAKLTCTLSSQHSAYTVEWYQQQPLKPPKYVMELKKDGSHSTGDGIPDRFSGSSSGADRYLSISNIQPEDEAIYICGVGDTVKEQFVFGGGTKVTVLG
notes: as for B1
B5: F2.205.9 (antibody, human IgG1, lambda, V domains shown)
VH: QVTLKESGPGILQPSQTLSLTCSFSGFSLSTSGMGVGWIRQPSGKGLEWLAHIWWDDDEYYNPALKSRLTISKDTSKNQVFLKIANVDTADTATYYCARISIPYGYYDWFFDVWGTGTTVTVSA
VL: QAVVTQESALTTSPGETVTLTCRSSTGAVTTRNYANWVQEKPDHLFTGLIGGTNNRAPGVPARFSGSLIGDKAALTITGAQTEDEAIYFCALWYSNHFIFGSGTKVTVLG
notes: as for B1
B6: F1.17.1 (antibody, human IgG1, kappa, V domains shown)
VH: QVQLKESGPGLVAPSQSLSITCTVSGFSLSRYTVHWVRQPPGKGLEWLGMIWGGGSTDYNSALKSRLSISKDNSKSQVFLKMNSLQTDDTAMYYCARPHDFDAGGFAYWGQGTLVTVSA
VL: QIVLTQSPAILSTSPGEKVTMTCSASSRVNYMYWYQQKPGSSPRLLIYDTSNLASGVPVRFSGSGSGTSYSLTISRMEAEDAATYYCQQWTSYPLTFGAGTKLELKR
notes: Human-murine chimeric IgG1, kappa
B7: F1.257.3 (antibody, human IgG1, kappa, V domains shown)
VH: QVQLQQSGPELARPGASVKLSCKASGYTFTSYGISWVKQRTGQDLEWIGEIYPKLGTTYYNEKFKDKATLTTDRSSSTAYMALRSLTSEDSAVYFCACPHYYATRGGDYWGQGTTLTVSS
VL: EIVLTQSPATLSVTPGDSVTFSCRASQSISNHLHWYQQKSHESPRLLIRYASQSISGIPSRFSGSGSGTDFTLSLSSVETEDFGVYFCQQSHSWPYTFGGGTKLEIAR
notes: as for B6
B8: HA22-hIgG1 (antibody, V domains shown)
VH: EVQLVESGGGLVKPGGSLKLSCAASGFAFSIYDMSWVRQTPEKCLEWVAYISSGGGTTYYPDTVKGRFTISRDNAKNTLYLQMSSLKSEDTAMYYCARHSGYGTHWGVLFAYWGQGTLVTVSA
VL: DIQMTQTTSSLSASLGDRVTISCRASQDISNYLNWYQQKPDGTVKLLIYYTSILHSGVPSRFSGSGSGTDYSLTISNLEQEDFATYFCQQGNTLPWTFGCGTKLEIKR
B9: F1.120.15 (antibody, human IgG1, kappa, V domains shown)
VH: QVQLQQSGPELVKPGASVKISCKASGNAFSNSWMNWVKQRPGKGLEWIGRVYSEDGDTQYNGKFRDKATLTADRSTSTAYMQLSSLTSEDSAVYFCARWLIYYGTYGAMDYWGQGTSVTVSS
VL: B8 VL with S30N, Q37H, Y50F, I53R, L54P, H55Y, F83I, C100G
notes: as for B6
B10: F1.200.11 (antibody, human IgG1, kappa, V domains shown)
VH: QNQLVQSGPELKKPGETVKISCKASGYTFTTAGMQWVQKMPGKGFKWIGWINTLSGEPKYAEDFKGRFAFSLETSATTAYLQISNLKNEDTATYFCARAYYSNLYWYFDVWGTGTTVTVSS
VL: DIVMTQSQKFMSTTVGDRVTITCKASQNVVTAVAWYQQKPGQSPKVLIYSASNRYSGVPDRFTGSGSGTDFTLTISNMHSEDLANYFCHQYSSYPFTFGSGTKLEIKR
notes: as for B6
B11: F2.343.16 (antibody, human IgG1, lambda, V domains shown)
VH: QVQLKQSGPGLVQPSQSLSITCTVSGFSLTGYGVQWVRQSPGKGLEWLGVIWGGGGTDYNAAFISRLNIIKDNSKSQVFFKMNSLQADDTAIYYCARYSKYGHFDVWGTGTAVTVSS
VL: QAVVTQESALTTSPGETVTLTCRSSTGAVTTSNYANWVQEKPDHLFTGLIGGTYNRVPGVPARFSGSLIGDKAALTITGAQTEDEAIYFCALWYSNHFWVFGGGTKLTVLG
notes: as for B1
B12: F1.216.2 (antibody, human IgG1, kappa, V domains shown)
VH: QVQLQQSGPEVVRPGASVKISCKASGYAFSSSWMNWMKQRPGKALEWIGRIYPGDGDTNYSGEFKVKATLTADKSSSTAYMQLSSLTSEDSAVYFCAREGSYYSNPWYFDYWGQGTTLTVSS
VL: DVLVTQTPLSLPVSLGDQASISCRSSQSIVQSNGDTYLEWYLQKPGQSPKLLIYKVSNRFSGVPDRFSGSGSGTDFTLKISRVEAEDLGVYYCFQGSHVPFTFGSGTKLEIKR
notes: as for B6
B13: F1.280.1 (antibody, human IgG1, kappa, V domains shown)
VH: QIQLVQSGPELKKPGETVKISCKASGYTFTTYGMSWVKQTPGKGLTWMGWINTDSGVPTYADDFKRRFAFSLEASATTAYLQINNLKNEDTATYFCARGGPDYWGQGTTLTVSS
VL: DILLTQSPATLSVTPGETVSLSCRASQSIYKNLHWYHQKSHRSPRLLIKYASDSISGIPSRFTGSGSGTNFTLSINSVKPEDEGIYYCLQGYIVPLTFGAGTKLELKR
notes: as for B6
B14: F1.224.1 (antibody, human IgG1, kappa, V domains shown)
VH: EVLLHQSGPELVKPGASVKISCKASGYTFTDFNMDWVRQRHGQSLEWIGDVNPNNGGTIYNQKFKGKATLTVDKSSSTVYMDLRSLTSDDTAVYYCVRLGTSDYGEAWFISWGQGTVVTVSA
VL: DIVLTQSPASLAVSLGQRATISCRASQSVSTPRYSFMHWYQQKPGQPPKLLIKYASNLESGFPARFTGSGSGTDFTLNIHPVEEEDTAAYYCQQSWAIPWTFGGGTKLEIKR
notes: as for B6
B15: F1.105.11 (antibody, human IgG1, kappa, V domains shown)
VH: EVQLQQSGPVLVKPGASVKMSCKASGYTFSDYFMNWVKQSHGKSLEWIGIINSYSGGTSYNQKFKGKATLTVDKSSSTAYMELNSLTSEDSAVYYCARWMDYWGQGTSVTVSS
VL: DVQITQSPSYLAASPGETITINCRTSESISKHLAWYQEKPGKTNKLLIYSGSTLQSGIPSRFSGSGSGTDFTLTISSLEPEDFAMYYCQQHNEYPWTFGGGTKLEIKR
notes: as for B6
B16: F1.60.9 (antibody, human IgG1, kappa, V domains shown)
VH: QVQLKESGPGLVAPSQSLSITCTVSGLSLNNYGVSWVRQPPGKGLEWLGVIWGDGSTNYHSALISRLSISKDNSKSQVFLKLNSLHTDDTATYYCAINWGDYWGQGTTLIVSS
VL: DIKMTQSPSSMNASLGERVTITCKASQDINSYLSWFQQKPGKSPKILIYRANRLIDGVPSRFSGSGSGQDYSLTISSLEYEDMGIYYCLQYGVFPLTFGAGTKLELKR
notes: as for B6
B17: F1.245.2 (antibody, human IgG1, kappa, V domains shown)
VH: EVQLQQSGAELVKPGASVKLSCTGSGFNIKDYYIHWVKQRTEQGLEWMGRIDPEDGETEYAPKFQDEATITSDTSSNTAYLQLSSLTYEDTAVYYCAREAAGYFYRGSSYGYFDVWGTGTTVTVSS
VL: DFQMTQTTSFLSASLGDRVTISCSASQDISNYLNWYQQKPDGTVKLLIYYTSSLHSGVPSRFSGSGSGTDYSLTISNLEPEDIATYYCQQYSMLPYTFGGGTKLEMER
notes: as for B6

The target of the experiment is T1, human CD22-ECD-His protein (human, UniProt P20273 20-687).
T1 construct: Made in house in HEK293E; also called hCD22-ECD-His; recombinant human CD22-ECD His protein; not shown: His tag
T1 sequence: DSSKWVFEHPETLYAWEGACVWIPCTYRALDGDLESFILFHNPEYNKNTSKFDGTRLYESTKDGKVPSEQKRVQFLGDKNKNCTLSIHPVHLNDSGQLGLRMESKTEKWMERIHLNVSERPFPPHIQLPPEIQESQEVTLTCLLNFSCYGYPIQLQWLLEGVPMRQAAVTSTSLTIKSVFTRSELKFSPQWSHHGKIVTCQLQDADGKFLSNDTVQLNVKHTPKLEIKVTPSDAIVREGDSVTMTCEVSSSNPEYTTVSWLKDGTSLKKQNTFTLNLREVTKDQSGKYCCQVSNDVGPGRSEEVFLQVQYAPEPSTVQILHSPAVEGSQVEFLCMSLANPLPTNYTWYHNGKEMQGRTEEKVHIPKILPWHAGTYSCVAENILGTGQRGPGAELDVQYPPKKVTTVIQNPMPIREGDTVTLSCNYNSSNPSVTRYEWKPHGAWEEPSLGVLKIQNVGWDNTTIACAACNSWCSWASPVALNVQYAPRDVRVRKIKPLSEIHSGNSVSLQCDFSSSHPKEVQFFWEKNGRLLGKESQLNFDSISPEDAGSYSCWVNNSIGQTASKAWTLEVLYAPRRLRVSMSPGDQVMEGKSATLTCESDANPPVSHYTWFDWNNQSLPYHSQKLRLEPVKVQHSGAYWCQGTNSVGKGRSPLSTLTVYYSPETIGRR
Kind of experiment: ELISA, Ab 0.10 nM. The procedure, abridged: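 Coat: CD22-ECD-His 2 μg/mL PBS, 4 °C o/n. Block PBS/2% BSA 2 h RT. Ab 2 h 37 °C; HRP 2° 2 h 37 °C; TMB 30 min RT, 1.0 N HCl stop.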
In general terms: ELISA stands for enzyme-linked immunosorbent assay.
In turn, B1 registered an OD450 of 1.86 OD450.
As for B2, the OD450 was 1.8 OD450.
Molecule B3 yielded an OD450 of 1.94 OD450.
Consider B4, for which the OD450 turned out to be 2.03 OD450.
Molecule B5 gave an OD450 of 2.1 OD450.
For the molecule B6, the OD450 was 2.41 OD450.
In turn, B7 had an OD450 of 2.49 OD450.
The molecule B8 gave an OD450 of 2.57 OD450.
With B9 the figure was 2.63 OD450; with B10, 2.4 OD450; with B11, 1.93 OD450.
B12: the OD450 stood at 2.55 OD450.
For the molecule B13, the OD450 turned out to be 2.38 OD450.
As to B14, the OD450 was found to be 2.37 OD450.
With B15 the figure was 2.52 OD450; with B16, 2.59 OD450; with B17, 2.57 OD450.
